Results as given in the supplement of paper PMC10567573.
± gives the standard deviation.

Test: protein stability index of a GFP-peptide fusion (GPS, HEK-293T) (PSI 1-6); higher = more stable
[1] = treatment: DMSO, c terminus: a fixed tail appended
[2] = treatment: MLN4924 1 uM, 8 h, c terminus: a fixed tail appended
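Also: 24-mer peptide tiles fused after GFP, lentivirally expressed, FACS-sorted into six equal bins by GFP/DsRed ratio, decoded by Illumina sequencing, PSI is the read-weighted mean bin number.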

Sequence	protein stability index [1]	protein stability index [2]	protein stability index (treatment: DMSO, c terminus: native)	protein stability index (treatment: MLN4924 1 uM, 8 h, c terminus: native)
CKLTCQAQALGYYYVLEPRVVDGT [ADAMTS4]	2.86 ± 2	2.77 ± 1.1		
AKVGPGLPDGCQPLQLLREMRQAL [CBY2]	2.73 ± 0.57	2.82 ± 0.33		
LSFYDAERHCHLYTFHARFGEVRP [TRIM35]	2.34 ± 0.54	2.3 ± 0.55		
SLLCLLCSNSQEHGAHKHHPIEEA [TRIM43]	2.67 ± 0.2	2.77 ± 0.21		
QLELRAGAERLDALLADEERCLSC [TRADD]	3.98 ± 0.25	4.24 ± 0.18		
EVDFFQRYFIADLPHLQDSFVDKL [INTS4]	2.23 ± 0.43	2.65 ± 0.25		
YSQGRLSEAEEALYLIAKRNRKLK [SLC22A15]	2.81 ± 0.2	3 ± 0.063		
MMHGGSYSLTTSSTHKRSSLRKVK [RAB40B]	4.15 ± 0.25	4.35 ± 0.15		
PAAAPEGDWARLLEQMGALAVRGS [ZBED3]	3.62 ± 0.3	3.59 ± 0.37		
PQALATRALPCPAHVVFRYQGVRM [FCHSD1]	2.69 ± 0.2	2.69 ± 0.22		
PARAPPEPPHNLFCAPGSWEWNEL [SERTAD3]	3.36 ± 0.3	3.32 ± 0.32		
SRRSYDDQLRSGSPPKSPRTTVHD [DNAJC4]	4.89 ± 0.31	4.98 ± 0.23		
MTEAALALSEQKAQDLGELLATAE [LRRC45]	5.16 ± 0.13	5.08 ± 0.13		
VLMAVSVHSERKLLPLVTLCDGNP [SCNN1D]	2.4 ± 0.38	2.32 ± 0.47		
LNHGASVNNTTLTNSTPLRAACFD [FEM1C]	3.98 ± 0.31	3.94 ± 0.14		
LEGEEENELTLNEKNFFPEYNYDW [CHGB]	4.21 ± 0.37	4.46 ± 0.28		
FTFLRPLSVQQPTALALEPDAIRS [PCDHGC5]	2.89 ± 0.3	3.03 ± 0.31		

Sequence	protein stability index [1]	protein stability index [2]	protein stability index (treatment: DMSO, c terminus: native)	protein stability index (treatment: MLN4924 1 uM, 8 h, c terminus: native)
IKNDKYGPWLEWEIMLQYCFPRLD [PRIM1]		3 ± 1		
SFPPSLSSSSSSSPTSGSPRGSHS [LURAP1L]	4.96 ± 0.2	5.01 ± 0.16		
RYQHGIAVIGNFLYVVGGQSNYDT [KLHL13]	2.42 ± 0.49	2.44 ± 0.5		
RLFPYSQYYRWLNYGGVIKNYFQH [PRIM1]	2.15 ± 0.75	2.22 ± 0.52		
RPFWEEEKTFWKEEKSFWEMEKSF [CCDC70]	2.71 ± 0.2	3.19 ± 0.26		
ACGVILYILLVGYPPFWDEDQHRL [CAMK2D]	2.6 ± 0.9	2.63 ± 0.51		
LVAEVPKEHWTPEGHSIVGFAMYY [SAT1]	2.81 ± 0.58	2.57 ± 0.39		
QNLLGFTPEELHAILGVQPDTED [ETS2]			4.78 ± 0.39	4.85 ± 0.34
ASLNGYRLGERVLQVSFKTSKQHK [ELAVL3]	3.45 ± 0.13	3.52 ± 0.32		
TDLVQFLLFKYQMKEPITKAEILE [MAGEA10]	2.48 ± 0.43	2.2 ± 0.23		
KYPSHSFIGEESVAAGEKSILTDN [IMPA1]	4.66 ± 0.24	4.75 ± 0.1		
RDNPMCLKCDLQERLLCPSLLAGT [M1AP]	2.28 ± 0.14	2.16 ± 0.23		
GLAKEYIDPETKKHIPYREHKSLT [CSNK1G3]	4.21 ± 0.22	4.2 ± 0.13		
RPEKHTKEQILEFLVLEQFLTILP [ZNF232]	3.03 ± 0.62	3.4 ± 0.66		
NTEEQLEIALAPYQHLEEDMKSLK [MTUS2]	4.78 ± 0.17	4.8 ± 0.28		
ESLPHRLSCLGQQQQEPPLAMGTV [PLAGL1]	3.92 ± 0.17	4.04 ± 0.26		
